This is an account of results in patent publication US20250235479A1 (INNOBATION BIO, published 2025).

Experiment [1] addresses T1, CD22 expressed on cells (U2932, NALM6, K562/CD22+ cells) (UniProt P20273 20-847, limits assumed).
T1 construct: whole, on cells; the cell lines are human lines; also called cells expressing CD22
T1 sequence (looked up): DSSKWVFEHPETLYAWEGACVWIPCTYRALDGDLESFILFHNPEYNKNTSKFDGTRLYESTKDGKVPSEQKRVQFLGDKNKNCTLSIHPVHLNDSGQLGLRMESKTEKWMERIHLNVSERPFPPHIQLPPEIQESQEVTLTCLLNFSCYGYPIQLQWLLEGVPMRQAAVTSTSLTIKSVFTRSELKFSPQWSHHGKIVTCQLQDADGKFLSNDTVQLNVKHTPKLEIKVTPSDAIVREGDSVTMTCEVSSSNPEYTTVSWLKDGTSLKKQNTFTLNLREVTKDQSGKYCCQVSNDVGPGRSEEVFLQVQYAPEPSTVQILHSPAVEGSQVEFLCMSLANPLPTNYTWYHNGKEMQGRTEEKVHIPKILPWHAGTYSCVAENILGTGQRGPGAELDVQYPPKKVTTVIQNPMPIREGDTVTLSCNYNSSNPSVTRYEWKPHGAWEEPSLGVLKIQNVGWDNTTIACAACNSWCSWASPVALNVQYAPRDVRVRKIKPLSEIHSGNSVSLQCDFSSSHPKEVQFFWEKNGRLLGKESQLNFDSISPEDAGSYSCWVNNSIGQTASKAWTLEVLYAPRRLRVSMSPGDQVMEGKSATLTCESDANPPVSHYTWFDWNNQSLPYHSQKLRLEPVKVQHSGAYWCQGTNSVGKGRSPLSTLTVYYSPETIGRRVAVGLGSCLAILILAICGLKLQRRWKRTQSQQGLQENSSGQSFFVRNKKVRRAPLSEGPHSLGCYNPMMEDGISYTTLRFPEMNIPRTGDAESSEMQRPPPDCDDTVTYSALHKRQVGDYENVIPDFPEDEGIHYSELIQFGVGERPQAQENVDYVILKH
Put plainly: flow cytometry on U2932 cells expressing CD22. Background: In flow cytometry, cells or beads pass a laser one at a time.

Experiment [2] has as its target T2, CD22 protein (ACRObiosystems Inc., cat #CD2-H52H8, USA) (UniProt P20273 20-687).
T2 construct: Named as the immunogen
T2 sequence (looked up): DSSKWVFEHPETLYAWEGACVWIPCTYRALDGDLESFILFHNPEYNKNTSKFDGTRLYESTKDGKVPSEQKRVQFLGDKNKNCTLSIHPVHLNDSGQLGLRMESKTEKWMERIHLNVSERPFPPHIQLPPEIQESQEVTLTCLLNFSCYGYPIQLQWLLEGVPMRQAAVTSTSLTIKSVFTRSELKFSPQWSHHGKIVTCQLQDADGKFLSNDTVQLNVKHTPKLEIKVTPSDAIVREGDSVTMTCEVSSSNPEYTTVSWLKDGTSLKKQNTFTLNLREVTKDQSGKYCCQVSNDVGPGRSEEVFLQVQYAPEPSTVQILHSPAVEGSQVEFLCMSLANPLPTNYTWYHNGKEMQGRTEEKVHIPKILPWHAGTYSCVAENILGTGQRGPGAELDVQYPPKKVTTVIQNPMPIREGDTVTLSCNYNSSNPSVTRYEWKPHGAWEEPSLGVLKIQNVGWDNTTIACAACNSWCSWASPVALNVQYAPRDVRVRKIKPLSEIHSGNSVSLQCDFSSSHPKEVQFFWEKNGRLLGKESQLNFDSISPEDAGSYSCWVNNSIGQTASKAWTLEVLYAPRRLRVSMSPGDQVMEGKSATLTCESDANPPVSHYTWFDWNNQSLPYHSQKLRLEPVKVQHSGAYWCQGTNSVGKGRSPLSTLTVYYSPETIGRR
Put plainly: ELISA screening of hybridoma clones. The text has this:
A limiting dilution method was used to select a hybridoma that produces an antibody binding to CD22 from among the proliferated hybridomas. First, the number of cells was reduced to 1 cell or less per […], and then it was confirmed by ELISA whether an antibody obtained from a clone proliferated from one cell bound to CD22, and a clone binding to CD22 was selected. The above process was repeated three times to select hybridomas that produced the antibody binding to CD22. The antibody binding to CD22 was obtained in this manner.
In general terms: ELISA stands for enzyme-linked immunosorbent assay.

B1: humanized anti-CD22 antibody 2G1(V4) (antibody, V domains shown)
VH: EVQLQESGPGLVKPSQTLSLTCTVSGFSLTSYDISWIRQPPGKGLEWLGVIWTGGGTNYNSALKSRVTISKDNSKSQVSLKLSSVTAADTAVYYCVPHYYGYAMDYWGQGTTVTVSS
VL: EIVLTQSPATLSLSPGERATLSCRASQDINKYIAWYQQKPGQAPRLLIHYTSTRQTGIPARFSGSGSGRDYTLTISSLEPEDFAVYYCLQYDNLLTFGGGTKLEIK
notes: CDR-grafted humanized form of 2G1
Regarding B1, the binding result in experiment [1] is reported as “binds”.

B2: humanized anti-CD22 antibody 2G1(V12) (antibody, V domains shown)
VH: EVQLKESGPVLVKPTETLTLTCTVSGFSLTSYDISWIRQPPGKALEWLGVIWTGGGTNYNSALKSRLTISKDNSKSQVVLTMTNMDPVDTATYYCVPHYYGYAMDYWGQGTTVTVSS
VL: EIVLTQSPATLSLSPGERATLSCRASQDINKYIAWYQQKPGQAPRLLIHYTSTRQTGIPARFSGSGSGRDYTLTISSLEPEDFAVYYCLQYDNLLTFGGGTKLEIK
notes: as for B1
Consider B2, for which the binding result in experiment [1] is recorded as “binds”.

B3: 2G1 antibody (mouse anti-CD22 antibody) (antibody, V domains shown)
VH: EVQLQESGPGLVAPSQSLSITCTVSGFSLTSYDISWIRQPPGKGLEWLGVIWTGGGTNYNSAFMSRLSISKDNSKSQVFLKMNSLQTDDTAIYYCVPHYYGYAMDYWGQGTSVTVSS
VL: DIVLTQSPSSLSASLGGKVTITCKASQDINKYIAWYQHKPGKGPRLLIHYTSTLQPGIPSRFSGSGSGRDYSFSISNLEPEDIATYYCLQYDNLLTFGAGTKLELK
notes: Obtained from a mouse hybridoma; also called mouse 2G1 antibody
For B3, the binding result in experiment [1] and in experiment [2] was “binds” throughout.
